Results taken from publication PMC11811267 (Journal of Separation Science, 2025).

What was measured:
Type in all cases: in vitro ADME
[1] = Autosampler (re-injection) stability at 4°C for 24 h; conditions: autosampler (AS) 4°C, triplicate, 2D-LC-MS/MS
Method: (§1) The stability tests of all insulins were performed at two concentration levels (193 and 7752 pg/mL). One set of tests was performed with artificial plasma and the other set with artificial plasma containing 1% PIC. Each concentration level was tested in triplicate. These QC samples were quantified using an artificial plasma calibration curve without PIC, and the obtained concentrations were compared with the nominal concentrations of the low quality control (LQC) and high quality control (HQC), which were set to 100%. To evaluate the stability of insulins in artificial plasma containing 1% PIC, we considered the concentration measured at time zero as the baseline (100%). All subsequent changes in concentration were calculated relative to this initial measurement.
(§2) Short‐term stability, long‐term stability, and freeze‐thaw stability were evaluated in this study. LQC and HQC samples were stored at room temperature and in a refrigerator for 3, 6, and 24 h to assess short‐term (bench‐top) stability and at 4°C in the autosampler for 24 h to assess re‐injection stability.

[2] = Freeze-thaw stability in artificial plasma after storage at −80°C; conditions: stored at −80°C, triplicate, 2D-LC-MS/MS; for 24 h, change (%): cycle at 24 h; for 48 h, change (%): cycle at 48 h; for 72 h, change (%): cycle at 72 h
Method: as §1, §2

[3] = Long-term stability in artificial plasma at −20°C; conditions: triplicate, 2D-LC-MS/MS
Method: as §1, §2

[4] = Long-term stability in artificial plasma at −80°C; conditions: triplicate, 2D-LC-MS/MS
Method: as §1, §2

[5] = extracted samples from artificial plasma with 1% PIC, 193 pg/mL, % of concentration at time zero (=100%)
[6] = extracted samples from artificial plasma with 1% PIC, 7752 pg/mL, % of concentration at time zero (=100%)
[7] = extracted samples from artificial plasma without PIC, 193 pg/mL, % of nominal concentration (=100%)
[8] = extracted samples from artificial plasma without PIC, 7752 pg/mL, % of nominal concentration (=100%)
[9] = artificial plasma (BZ273) with 1% PIC, 193 pg/mL, % of concentration at time zero
[10] = artificial plasma (BZ273) with 1% PIC, 7752 pg/mL, % of concentration at time zero
[11] = artificial plasma (BZ273) without PIC, 193 pg/mL, % of nominal concentration
[12] = artificial plasma (BZ273) without PIC, 7752 pg/mL, % of nominal concentration
[13] = artificial plasma (BZ273) without PIC, 7752 pg/mL, % of nominal concentration, listed as Insulin aspart

detemir
24 h AS, change (%) [1, 5]: <LLOQ
24 h AS, change (%) [1, 6]: 66.0%
24 h AS, change (%) [1, 7]: 98.4%
24 h AS, change (%) [1, 8]: 93.7%
24 h, change (%) [2, 9]: 115.2%
24 h, change (%) [2, 10]: 375.0%
24 h, change (%) [2, 11]: 253.5%
24 h, change (%) [2, 12]: 168.5%
48 h, change (%) [2, 9]: 140.6%
48 h, change (%) [2, 10]: 344.2%
48 h, change (%) [2, 11]: 349.6%
48 h, change (%) [2, 12]: 195.4%
72 h, change (%) [2, 9]: 116.7%
72 h, change (%) [2, 10]: 285.9%
72 h, change (%) [2, 11]: 243.7%
72 h, change (%) [2, 12]: 161.5%
1 week, change (%) [3, 9]: <LLOQ
1 week, change (%) [3, 10]: 71.2%
1 week, change (%) [3, 11]: <LLOQ
1 week, change (%) [3, 12]: 27.0%
2 weeks, change (%) [3, 9]: <LLOQ
2 weeks, change (%) [3, 10]: 71.8%
2 weeks, change (%) [3, 11]: <LLOQ
2 weeks, change (%) [3, 12]: 24.8%
3 weeks, change (%) [3, 9]: <LLOQ
3 weeks, change (%) [3, 10]: 62.2%
3 weeks, change (%) [3, 11]: <LLOQ
3 weeks, change (%) [3, 12]: 21.9%
1 week, change (%) [4, 9]: <LLOQ
1 week, change (%) [4, 10]: 139.1%
1 week, change (%) [4, 11]: 64.2%
1 week, change (%) [4, 12]: 63.2%
2 weeks, change (%) [4, 9]: <LLOQ
2 weeks, change (%) [4, 10]: 173.5%
2 weeks, change (%) [4, 11]: 50.5%
2 weeks, change (%) [4, 12]: 54.7%
3 weeks, change (%) [4, 9]: <LLOQ
3 weeks, change (%) ([4]; artificial plasma (BZ273) with 1% PIC, 193 pg/mL, % of concentration at time zero, listed as Insulin detemir): < LLOQ
3 weeks, change (%) [4, 10]: 154.5%
3 weeks, change (%) [4, 11]: 34.1%
3 weeks, change (%) [4, 12]: 49.4%

glulisine
24 h AS, change (%) [1, 5]: 93.2%
24 h AS, change (%) [1, 7]: 97.6%
24 h AS, change (%) [1, 8]: 82.2%
24 h, change (%) [2, 9]: 79.0%
24 h, change (%) [2, 10]: 93.1%
24 h, change (%) [2, 11]: 99.0%
24 h, change (%) [2, 12]: 92.3%
48 h, change (%) [2, 9]: 106.9%
48 h, change (%) [2, 10]: 119.5%
48 h, change (%) [2, 12]: 95.2%
72 h, change (%) [2, 9]: 92.4%
72 h, change (%) [2, 10]: 95.0%
72 h, change (%) [2, 11]: 106.5%
72 h, change (%) [2, 12]: 81.1%
1 week, change (%) [3, 9]: 51.7%
1 week, change (%) [3, 10]: 55.6%
1 week, change (%) [3, 11]: 99.7%
1 week, change (%) [3, 12]: 86.2%
2 weeks, change (%) [3, 9]: 36.7%
2 weeks, change (%) [3, 10]: 143.0%
2 weeks, change (%) [3, 12]: 84.0%
3 weeks, change (%) [3, 9]: 29.2%
3 weeks, change (%) [3, 10]: 31.5%
3 weeks, change (%) [3, 11]: 84.8%
3 weeks, change (%) [3, 12]: 79.8%
1 week, change (%) [4, 10]: 88.1%
1 week, change (%) [4, 11]: 103.5%
1 week, change (%) [4, 12]: 84.5%
2 weeks, change (%) [4, 10]: 117.9%
2 weeks, change (%) [4, 11]: 102.7%
2 weeks, change (%) [4, 12]: 83.7%
3 weeks, change (%) [4, 9]: 79.1%
3 weeks, change (%) [4, 10]: 95.2%
3 weeks, change (%) [4, 11]: 98.8%
3 weeks, change (%) [4, 12]: 75.6%

insulin aspart
24 h AS, change (%) [1, 6]: 125.7%
24 h AS, change (%) [1, 7]: 92.6%
24 h, change (%) [2, 9]: 111.6%
24 h, change (%) [2, 10]: 117.4%
24 h, change (%) [2, 11]: 90.4%
24 h, change (%) [2, 12]: 100.00%
24 h, change (%) [2, 13]: 100.0%
48 h, change (%) [2, 9]: 111.6%
48 h, change (%) [2, 10]: 115.5%
48 h, change (%) [2, 11]: 98.1%
72 h, change (%) [2, 9]: 93.7%
72 h, change (%) [2, 10]: 99.8%
72 h, change (%) [2, 11]: 85.7%
72 h, change (%) [2, 12]: 92.10%
72 h, change (%) [2, 13]: 92.1%
1 week, change (%) [3, 9]: 70.7%
1 week, change (%) [3, 10]: 72.2%
1 week, change (%) [3, 11]: 105.6%
1 week, change (%) [3, 12]: 104.3%
2 weeks, change (%) [3, 9]: 58.4%
2 weeks, change (%) [3, 10]: 62.5%
2 weeks, change (%) [3, 11]: 107.3%
2 weeks, change (%) [3, 12]: 100.2%
3 weeks, change (%) [3, 9]: 39.5%
3 weeks, change (%) [3, 10]: 35.8%
3 weeks, change (%) [3, 11]: 101.4%
3 weeks, change (%) [3, 12]: 95.2%
1 week, change (%) [4, 9]: 116.5%
1 week, change (%) [4, 10]: 123.4%
1 week, change (%) [4, 11]: 106.0%
1 week, change (%) [4, 12]: 104.7%
2 weeks, change (%) [4, 9]: 99.6%
2 weeks, change (%) [4, 10]: 106.6%
2 weeks, change (%) [4, 12]: 97.2%
3 weeks, change (%) [4, 9]: 93.4%
3 weeks, change (%) [4, 10]: 108.9%
3 weeks, change (%) [4, 11]: 97.8%
3 weeks, change (%) [4, 12]: 92.8%
